Experimental data published in publication PMC6383938 (PLoS Biology, 2019).

B1: human copper chaperone for SOD1 Ala231Gly (natural protein, UniProt O14618 1-274, looked up)
chain: MASDSGNQGTLCTLEFAVQMTCQSCVDAVRKSLQGVAGVQDVEVHLEDQMVLVHTTLPSQEVQALLEGTGRQAVLKGMGSGQLQNLGAAVAILGGPGTVQGVVRFLQLTPERCLIEGTIDGLEPGLHGLHVHQYGDLTNNCNSCGNHFNPDGASHGGPQDSDRHRGDLGNVRADADGRAIFRMEDEQLKVWDVIGRSLIIDEGEDDLGRGGHPLSKITGNSGERLACGIIGRSAGLFQNPKQICSCDGLTIWEERGRPIAGKGRKESAQPPAHL
notes: also called Ala231Gly hCCS; A231G hCCS; source: expressed and purified as previously described [29,35,42]
B2: wild-type human copper chaperone for SOD1 (natural protein, UniProt O14618 1-274, looked up)
chain: MASDSGNQGTLCTLEFAVQMTCQSCVDAVRKSLQGVAGVQDVEVHLEDQMVLVHTTLPSQEVQALLEGTGRQAVLKGMGSGQLQNLGAAVAILGGPGTVQGVVRFLQLTPERCLIEGTIDGLEPGLHGLHVHQYGDLTNNCNSCGNHFNPDGASHGGPQDSDRHRGDLGNVRADADGRAIFRMEDEQLKVWDVIGRSLIIDEGEDDLGRGGHPLSKITGNSGERLACGIIARSAGLFQNPKQICSCDGLTIWEERGRPIAGKGRKESAQPPAHL
notes: human copper chaperone for SOD1 (hCCS), wild type; also called hCCS; wild-type hCCS; source: expressed and purified as previously described [29,35,42]

Legend:
[1] = target: human copper chaperone for SOD1 domain II–III construct (human); assay: SEC-MALS; SEC and light scattering–derived molecular weights of hCCS truncations at micromolar concentration
[2] = target: the molecule itself; assay: SEC; size exclusion chromatograms of hCCS alone (wild type and Ala231Gly); relative amounts of dimeric and monomeric species
[3] = target: human superoxide dismutase-1 as used in the SEC complexation assays (variant not stated) (human) (UniProt P00441); assay: SEC; complexation of hCCS dimer interface variants with hSOD1 followed over a time course from 8 minutes to 4 days; Agilent BioSec Advance 300 Å 4.6 × 300 mm column; heterodimer peak height plotted

Molecule	stoichiometry N [1]	binding result [2]	fold slower complexation than with wild-type hCCS [3] [fold]
human copper chaperone for SOD1 domain II–III construct (domain or fragment)	2		
B1		binds	> 300
B2		binds	
